Results reported in EP0569583B1, “[…] OF POLYETHER-S[…] AGENTS IN DIAGNOSIS AND THERAPY” (Deutsches Krebsforschungszentrum Stiftung des öffentlichen …, priority 1991, dated 1993).

How the values were obtained:
[1] = test system: experimentelle Tumoren und Xenotransplantate; assay: Concentration of the radiolabelled agents in experimental tumours and human xenografts; format: in vivo, Ratte; Nacktmaus; conditions: 300 µC = 11,1 MBq administered; all tumour models tested (Beispiel 2 compound only in Walker Carcinosarcom, Osteosarcom, Ovarialcarcinom O-342)
Text: Die Konzentrierung dieser Mittel wurde an folgenden experimentellen Tumoren und an folgenden Tiermodellen geprüft:
Alle diese experimentellen Tumoren und Xenotransplantate wurden mit den Verbindungen a und c gemäß Beispiel 1 (also 1a und 1c) und drei davon, nämlich das Walker Carcinosarcom, das Osteosarcom und das Ovarialcarcinom (O-342) auch mit dem Diphosphat gemäß Beispiel 2 untersucht.
(§1) Bei allen diesen Anwendungsversuchen wurden immer 300 µC = 11,1 MBq verabreicht Es zeigten sich mit den eingesetzten Mitteln, nämlich 1a und 1c und die Verbindung aus Beispiel 2 eine Konzentration von mindestens 30% des Mittels an der gewünschten Stelle, also am Tumor. Die beigefügte Fig. 4 zeigt das Bild einer BDIX-Ratte mit Ovarialcarcinom 42 h nach Injektion, die mit ^131J-HOPAD-CMPEG, also ^131J-Hydroxyphenyl-1-aminome-than-1,1-diphosphonat-Cyanurchlorid aktiviertes Polyethylenglykol (n=ca. 100 bis 110) in einer Menge von 300 µC behandelt war. Das Bild zeigt, daß ganz unten, im Tumor ca. 30+/-2% des Mittels konzentriert sind, während in der Mitte die Leber ca. 10% zeigt und die Schilddrüse, die oberhalb der Leber sichtbar ist, weit weniger als 2% des Mittels aufgenommen hat Diese %-Angaben beziehen sich auf die Gesamtmenge an die mit radiojodmarkierten Mittel im Gesamtkörper der Ratte.

[2] = test system: Ovarialcarcinom; assay: Whole-body distribution of radioiodine activity in tumour-bearing rat (Fig. 4, Fig. 5); format: in vivo, BDIX-Ratte
Procedure: as §1
Die beigefügte Fig. 5 zeigt die Messung einer mit ^131I-TOP-(CMPEG)4 behandelten BD IX Ratte (auch hier Ovarialcarcinom). Es zeigt sich ein ähnliches Ergebnis wie das von Fig. 4.
Von der gesamten Körperaktivität an radioaktivem Jod finden sich nach 150 h etwa 23% im Tumor, etwa 12% in der Leber, etwa 5% im Blut und etwa 3-4% jeweils in den Muskeln und in der Schilddrüse. Der Rest ist natürlich, wie auch bei der Aufnahme von Fig. 4, über den restlichen Körper verteilt.

[3] = BDIX-Ratte with Ovarialcarcinom, 42 h after injection, 300 µC, % of total labelled agent in whole body (Fig. 4)
[4] = BD IX Ratte with Ovarialcarcinom, after 150 h, % of total body activity of radioactive iodine (Fig. 5)

Substance | Konzentration des Mittels an der gewünschten Stelle, also am Tumor [1] [%] | Leber [2, 3] | Schilddrüse [2, 3] [%] | im Tumor konzentriert [2, 3] | im Blut [2, 4] [%] | im Tumor [2, 4] [%] | in den Muskeln [2, 4] | in der Leber [2, 4] [%] | in der Schilddrüse [2, 4]
^111-In-Tetra-(hydroxyphenoxy)-phthalocyanin-(CMPEG)4 [1c] | ≥ 30 |  |  |  |  |  |  |  | 
^131J-Hydroxyphenyl-1-aminome-than-1,1-diphosphonat-Cyanurchlorid aktiviertes Polyethylenglykol (n=ca. 100 bis 110) [Beispiel 2] | ≥ 30 | ca. 10% | < 2 | ca. 30+/-2% |  |  |  |  | 
^131I-Tetra(hydroxyphenyl)-porphin-(CMPEG)4 [1a] | ≥ 30 |  |  |  | ~5 | ~23 | 3-4% | ~12 | 3-4%
